The data set concerns Escherichia coli TOP10. As to the kind of experiment: shrunken log2 fold change of peptide-encoding DNA abundance (4.5 h post-induction vs induction); higher = less antimicrobial activity (less host growth inhibition). To be noted: time post-induction: 4.5 h; library: site-saturation at positions 5, 18, 19, 20.
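Also: peptides expressed intracellularly from a pBAD plasmid library in pooled LB shake-flask culture, induced with 0.3% L-arabinose, DNA abundance read by NGS, three biological replicates, DESeq2 with apeglm shrinkage.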

RRIRTRPPRLPRPRPRPPVFPRP: the “shrunken log2 fold change” value came to 0.346.

For RRIRQRPPRLPRPRPRPWWHPRP, the “shrunken log2 fold change” value worked out at 0.00797.

Take RRIRFRPPRLPRPRPRPVWWPRP: the “shrunken log2 fold change” value is 0.148.

On to RRIRMRPPRLPRPRPRPGKIPRP, for which the “shrunken log2 fold change” value was 0.0308.

RRIRWRPPRLPRPRPRPNFTPRP: the “shrunken log2 fold change” value was -0.0319.

RRIRMRPPRLPRPRPRPYNNPRP: the “shrunken log2 fold change” value is -0.4.

As for RRIRNRPPRLPRPRPRPGRNPRP, the “shrunken log2 fold change” value is -0.202.

Turning to RRIRYRPPRLPRPRPRPLIMPRP, the “shrunken log2 fold change” value is -0.0566.

For the sequence RRIRSRPPRLPRPRPRPRCIPRP, the “shrunken log2 fold change” value was -0.155.

For the sequence RRIRNRPPRLPRPRPRPPYCPRP, the “shrunken log2 fold change” value was 0.0775.

As for RRIRARPPRLPRPRPRPTQAPRP, the “shrunken log2 fold change” value worked out at 1.06.

Regarding RRIRARPPRLPRPRPRPWFLPRP, the “shrunken log2 fold change” value is -0.399.

As to RRIRSRPPRLPRPRPRPDLGPRP, the “shrunken log2 fold change” value is 0.0168.

Consider RRIRSRPPRLPRPRPRPKRLPRP, for which the “shrunken log2 fold change” value was 0.297.

With RRIRKRPPRLPRPRPRPNGVPRP, the “shrunken log2 fold change” value stood at 0.0149.

On to RRIRVRPPRLPRPRPRPNQWPRP, for which the “shrunken log2 fold change” value was -0.264.

As to RRIRTRPPRLPRPRPRPIKKPRP, the “shrunken log2 fold change” value is -0.0742.

For RRIRCRPPRLPRPRPRPCREPRP, the “shrunken log2 fold change” value was -0.291.

In the case of RRIRCRPPRLPRPRPRPNTKPRP, the “shrunken log2 fold change” value was -0.358.

As to RRIRARPPRLPRPRPRPHMMPRP, the “shrunken log2 fold change” value was -0.12.

Regarding RRIRFRPPRLPRPRPRPDPMPRP, the “shrunken log2 fold change” value is -0.196.

For RRIRSRPPRLPRPRPRPCTQPRP, the “shrunken log2 fold change” value was -0.294.

Take RRIRSRPPRLPRPRPRPFDVPRP: the “shrunken log2 fold change” value is -0.151.

In the case of RRIRNRPPRLPRPRPRPGESPRP, the “shrunken log2 fold change” value is -0.111.

With RRIRFRPPRLPRPRPRPIFNPRP, the “shrunken log2 fold change” value is -0.0984.

Consider RRIRMRPPRLPRPRPRPKNWPRP, for which the “shrunken log2 fold change” value stood at 0.671.

As for RRIRVRPPRLPRPRPRPSNMPRP, the “shrunken log2 fold change” value is -0.124.

As for RRIRFRPPRLPRPRPRPDACPRP, the “shrunken log2 fold change” value is 0.0499.

As for RRIRCRPPRLPRPRPRPSNFPRP, the “shrunken log2 fold change” value is -0.627.

Take RRIRMRPPRLPRPRPRPGGLPRP: the “shrunken log2 fold change” value stood at 0.818.

As to RRIRMRPPRLPRPRPRPKMDPRP, the “shrunken log2 fold change” value is 1.2.

In the case of RRIRIRPPRLPRPRPRPNNMPRP, the “shrunken log2 fold change” value is -0.959.

With RRIRYRPPRLPRPRPRPISYPRP, the “shrunken log2 fold change” value was -0.325.

For RRIRHRPPRLPRPRPRPWKEPRP, the “shrunken log2 fold change” value is -0.0223.

For the sequence RRIRCRPPRLPRPRPRPANDPRP, the “shrunken log2 fold change” value was -0.799.

Regarding RRIRLRPPRLPRPRPRPTMVPRP, the “shrunken log2 fold change” value is -0.0972.

In the case of RRIRKRPPRLPRPRPRPMYNPRP, the “shrunken log2 fold change” value was -0.315.

On to RRIRMRPPRLPRPRPRPWVPPRP, for which the “shrunken log2 fold change” value is -0.0184.

As to RRIRCRPPRLPRPRPRPETNPRP, the “shrunken log2 fold change” value was 0.222.

RRIRGRPPRLPRPRPRPVHNPRP: the “shrunken log2 fold change” value was 0.259.

In the case of RRIRVRPPRLPRPRPRPKACPRP, the “shrunken log2 fold change” value was 0.153.

In the case of RRIRTRPPRLPRPRPRPIWQPRP, the “shrunken log2 fold change” value is 0.168.

As to RRIRIRPPRLPRPRPRPCHIPRP, the “shrunken log2 fold change” value is -0.149.

Take RRIRPRPPRLPRPRPRPGNDPRP: the “shrunken log2 fold change” value was -0.0392.

As for RRIRNRPPRLPRPRPRPPETPRP, the “shrunken log2 fold change” value amounted to 0.314.

In the case of RRIRIRPPRLPRPRPRPKWFPRP, the “shrunken log2 fold change” value is -0.69.

On to RRIRMRPPRLPRPRPRPFVEPRP, for which the “shrunken log2 fold change” value was -0.0699.

Consider RRIRNRPPRLPRPRPRPNPKPRP, for which the “shrunken log2 fold change” value came to 0.284.

Regarding RRIRARPPRLPRPRPRPTRMPRP, the “shrunken log2 fold change” value turned out to be 0.865.

Turning to RRIRCRPPRLPRPRPRPIFEPRP, the “shrunken log2 fold change” value is 0.0936.

With RRIRPRPPRLPRPRPRPRVGPRP, the “shrunken log2 fold change” value came out at 0.543.

Regarding RRIRGRPPRLPRPRPRPEITPRP, the “shrunken log2 fold change” value amounted to 0.542.

As to RRIRKRPPRLPRPRPRPVINPRP, the “shrunken log2 fold change” value is -0.0513.

RRIRSRPPRLPRPRPRPACYPRP: the “shrunken log2 fold change” value was -0.0386.

For the sequence RRIRDRPPRLPRPRPRPWYFPRP, the “shrunken log2 fold change” value is -0.327.

For RRIRDRPPRLPRPRPRPTTFPRP, the “shrunken log2 fold change” value is 0.0301.

On to RRIRKRPPRLPRPRPRPSTVPRP, for which the “shrunken log2 fold change” value is -0.159.

For the sequence RRIRERPPRLPRPRPRPPDIPRP, the “shrunken log2 fold change” value is -0.225.

RRIRCRPPRLPRPRPRPRTNPRP: the “shrunken log2 fold change” value stood at 0.0761.

For RRIRYRPPRLPRPRPRPRNNPRP, the “shrunken log2 fold change” value is -0.738.

For the sequence RRIRNRPPRLPRPRPRPQKKPRP, the “shrunken log2 fold change” value came to 0.0889.

Regarding RRIRMRPPRLPRPRPRPYSRPRP, the “shrunken log2 fold change” value was -0.253.

RRIRKRPPRLPRPRPRPRYPPRP: the “shrunken log2 fold change” value came to 0.122.

In the case of RRIRGRPPRLPRPRPRPREIPRP, the “shrunken log2 fold change” value was determined as 1.1.

For RRIRKRPPRLPRPRPRPYITPRP, the “shrunken log2 fold change” value was -0.548.

Regarding RRIRDRPPRLPRPRPRPTWQPRP, the “shrunken log2 fold change” value was 0.542.

Consider RRIRGRPPRLPRPRPRPWNHPRP, for which the “shrunken log2 fold change” value is -0.052.

As to RRIRQRPPRLPRPRPRPDPSPRP, the “shrunken log2 fold change” value was -0.132.

Take RRIRQRPPRLPRPRPRPVRGPRP: the “shrunken log2 fold change” value was found to be 1.97.

Take RRIRYRPPRLPRPRPRPMCVPRP: the “shrunken log2 fold change” value is -0.227.

For RRIRFRPPRLPRPRPRPLYRPRP, the “shrunken log2 fold change” value is -0.702.

RRIRPRPPRLPRPRPRPFHGPRP: the “shrunken log2 fold change” value is -0.252.

Take RRIRMRPPRLPRPRPRPNMAPRP: the “shrunken log2 fold change” value was found to be 0.155.

With RRIRFRPPRLPRPRPRPFHGPRP, the “shrunken log2 fold change” value stood at 0.00193.

As to RRIRTRPPRLPRPRPRPLGFPRP, the “shrunken log2 fold change” value was found to be 0.046.

On to RRIRGRPPRLPRPRPRPFVSPRP, for which the “shrunken log2 fold change” value was -0.166.

RRIRVRPPRLPRPRPRPCDGPRP: the “shrunken log2 fold change” value is 0.0303.

For the sequence RRIRCRPPRLPRPRPRPTRTPRP, the “shrunken log2 fold change” value is 0.406.

Take RRIRNRPPRLPRPRPRPHVEPRP: the “shrunken log2 fold change” value was -0.326.

As to RRIRERPPRLPRPRPRPGLNPRP, the “shrunken log2 fold change” value was determined as 0.127.

Turning to RRIRVRPPRLPRPRPRPHAPPRP, the “shrunken log2 fold change” value stood at 0.26.

On to RRIRARPPRLPRPRPRPCCNPRP, for which the “shrunken log2 fold change” value came out at 0.278.

For the sequence RRIRHRPPRLPRPRPRPNVPPRP, the “shrunken log2 fold change” value is -0.0223.

In the case of RRIRNRPPRLPRPRPRPAPHPRP, the “shrunken log2 fold change” value amounted to 0.227.

Take RRIRIRPPRLPRPRPRPNMDPRP: the “shrunken log2 fold change” value is -0.874.

With RRIRHRPPRLPRPRPRPTGNPRP, the “shrunken log2 fold change” value is -0.215.

Regarding RRIRLRPPRLPRPRPRPTMNPRP, the “shrunken log2 fold change” value is -0.362.

Take RRIRQRPPRLPRPRPRPDYFPRP: the “shrunken log2 fold change” value was -0.198.

For the sequence RRIRLRPPRLPRPRPRPRFFPRP, the “shrunken log2 fold change” value was 0.0823.

With RRIRSRPPRLPRPRPRPKNFPRP, the “shrunken log2 fold change” value was -0.053.

RRIRARPPRLPRPRPRPCWMPRP: the “shrunken log2 fold change” value was -0.102.

Consider RRIRNRPPRLPRPRPRPDRNPRP, for which the “shrunken log2 fold change” value is -0.0291.

Turning to RRIRPRPPRLPRPRPRPKLSPRP, the “shrunken log2 fold change” value came to 0.331.

Turning to RRIRQRPPRLPRPRPRPVSHPRP, the “shrunken log2 fold change” value is -0.0425.

Regarding RRIRCRPPRLPRPRPRPSLFPRP, the “shrunken log2 fold change” value is -0.293.

In the case of RRIRDRPPRLPRPRPRPKSAPRP, the “shrunken log2 fold change” value came to 0.0797.

Turning to RRIRARPPRLPRPRPRPRQVPRP, the “shrunken log2 fold change” value amounted to 0.2.

For the sequence RRIRPRPPRLPRPRPRPVQRPRP, the “shrunken log2 fold change” value came to 0.0521.

Regarding RRIRNRPPRLPRPRPRPLCEPRP, the “shrunken log2 fold change” value was -0.107.

As to RRIRMRPPRLPRPRPRPNPDPRP, the “shrunken log2 fold change” value turned out to be 0.377.

On to RRIRVRPPRLPRPRPRPKDEPRP, for which the “shrunken log2 fold change” value was -0.205.

On to RRIRDRPPRLPRPRPRPAWEPRP, for which the “shrunken log2 fold change” value came to 1.07.

On to RRIRGRPPRLPRPRPRPCIFPRP, for which the “shrunken log2 fold change” value was 0.426.

In the case of RRIRQRPPRLPRPRPRPIAGPRP, the “shrunken log2 fold change” value came out at 0.139.

In the case of RRIRTRPPRLPRPRPRPGASPRP, the “shrunken log2 fold change” value worked out at 0.156.

Consider RRIRFRPPRLPRPRPRPETFPRP, for which the “shrunken log2 fold change” value is -0.0396.

In the case of RRIRSRPPRLPRPRPRPPKTPRP, the “shrunken log2 fold change” value was -0.0288.

RRIRERPPRLPRPRPRPVGVPRP: the “shrunken log2 fold change” value was determined as 0.0502.

Turning to RRIRLRPPRLPRPRPRPVMDPRP, the “shrunken log2 fold change” value was -0.0398.

RRIRWRPPRLPRPRPRPDPRPRP: the “shrunken log2 fold change” value was 0.751.

With RRIRWRPPRLPRPRPRPTCPPRP, the “shrunken log2 fold change” value came out at 0.187.

As to RRIRRRPPRLPRPRPRPLHFPRP, the “shrunken log2 fold change” value came out at 0.397.

Turning to RRIRSRPPRLPRPRPRPFAPPRP, the “shrunken log2 fold change” value stood at 0.314.

RRIRWRPPRLPRPRPRPKPFPRP: the “shrunken log2 fold change” value amounted to 0.323.

As to RRIRFRPPRLPRPRPRPFYQPRP, the “shrunken log2 fold change” value is -0.537.

On to RRIRFRPPRLPRPRPRPAECPRP, for which the “shrunken log2 fold change” value is -0.16.

With RRIRTRPPRLPRPRPRPDMMPRP, the “shrunken log2 fold change” value is -0.182.

For the sequence RRIRMRPPRLPRPRPRPSGLPRP, the “shrunken log2 fold change” value came out at 0.0901.

Regarding RRIRKRPPRLPRPRPRPIATPRP, the “shrunken log2 fold change” value is -0.0616.

Turning to RRIRDRPPRLPRPRPRPENFPRP, the “shrunken log2 fold change” value was determined as 0.043.

Consider RRIRERPPRLPRPRPRPSFSPRP, for which the “shrunken log2 fold change” value is -0.765.

For RRIRHRPPRLPRPRPRPMWVPRP, the “shrunken log2 fold change” value was -0.015.

Take RRIRNRPPRLPRPRPRPNYRPRP: the “shrunken log2 fold change” value was -0.264.

Consider RRIRKRPPRLPRPRPRPNGKPRP, for which the “shrunken log2 fold change” value is -0.114.

RRIRMRPPRLPRPRPRPTMCPRP: the “shrunken log2 fold change” value is 0.674.

These data come from the supplement of paper PMC9112550, “Optimization of the antimicrobial peptide Bac7 by deep mutational scanning” (BMC Biology, 2022).
